From patent publication US20220098265A1 (MEDIMMUNE LIMITED, priority 2012, published 2022)
Numbered stars: 1 amine (or outer) side, 2 acyl side, 3 side chain; on linkers, the order of the positions; unused ones are H or OH. Side chains are listed from the residue outwards. Ends that are not written are not given here. * marks the point of attachment. γGlu = O=C(O)[C@H](CCC(=O)[*:2])N[*:1]; Palmitoyl = CCCCCCCCCCCCCCCC(=O)*

T1: human glucose-dependent insulinotropic peptide (gastric inhibitory polypeptide) receptor (human, UniProt P48546 22-466)
T1 sequence (looked up): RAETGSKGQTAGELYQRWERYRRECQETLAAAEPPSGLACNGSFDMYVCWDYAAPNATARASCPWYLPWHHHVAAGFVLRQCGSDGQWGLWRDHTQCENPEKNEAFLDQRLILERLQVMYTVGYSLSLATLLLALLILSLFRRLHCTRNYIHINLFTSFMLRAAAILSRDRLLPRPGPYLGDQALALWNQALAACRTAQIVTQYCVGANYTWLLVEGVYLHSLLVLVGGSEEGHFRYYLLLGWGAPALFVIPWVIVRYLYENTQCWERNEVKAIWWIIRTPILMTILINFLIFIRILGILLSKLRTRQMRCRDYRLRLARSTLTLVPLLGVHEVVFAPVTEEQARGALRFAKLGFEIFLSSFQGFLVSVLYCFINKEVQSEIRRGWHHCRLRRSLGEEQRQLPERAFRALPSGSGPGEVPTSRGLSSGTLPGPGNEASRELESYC

B1: g702 (peptide)
peptide: HSQGTFTSDYSK([γGlu-Palmitoyl])YLDSRRAQDFVQWLVAGG-NH2
modifications: N-terminus assumed
SMILES: CCCCCCCCCCCCCCCC(=O)N[C@@H](CCC(=O)NCCCC[C@H](NC(=O)[C@H](CO)NC(=O)[C@H](Cc1ccc(O)cc1)NC(=O)[C@H](CC(=O)O)NC(=O)[C@H](CO)NC(=O)[C@@H](NC(=O)[C@H](Cc1ccccc1)NC(=O)[C@@H](NC(=O)CNC(=O)[C@H](CCC(N)=O)NC(=O)[C@H](CO)NC(=O)[C@@H](N)Cc1c[nH]cn1)[C@@H](C)O)[C@@H](C)O)C(=O)N[C@@H](Cc1ccc(O)cc1)C(=O)N[C@@H](CC(C)C)C(=O)N[C@@H](CC(=O)O)C(=O)N[C@@H](CO)C(=O)N[C@@H](CCCNC(=N)N)C(=O)N[C@@H](CCCNC(=N)N)C(=O)N[C@@H](C)C(=O)N[C@@H](CCC(N)=O)C(=O)N[C@@H](CC(=O)O)C(=O)N[C@@H](Cc1ccccc1)C(=O)N[C@H](C(=O)N[C@@H](CCC(N)=O)C(=O)N[C@@H](Cc1c[nH]c2ccccc12)C(=O)N[C@@H](CC(C)C)C(=O)N[C@H](C(=O)N[C@@H](C)C(=O)NCC(=O)NCC(N)=O)C(C)C)C(C)C)C(=O)O
B2: g326 (peptide)
peptide: HSQGTFTSDYSKYLDSRRAQDFVQWLVAGGGGGGK(Palmitoyl)-NH2
modifications: N-terminus assumed
SMILES: CCCCCCCCCCCCCCCC(=O)NCCCC[C@H](NC(=O)CNC(=O)CNC(=O)CNC(=O)CNC(=O)CNC(=O)CNC(=O)[C@H](C)NC(=O)[C@@H](NC(=O)[C@H](CC(C)C)NC(=O)[C@H](Cc1c[nH]c2ccccc12)NC(=O)[C@H](CCC(N)=O)NC(=O)[C@@H](NC(=O)[C@H](Cc1ccccc1)NC(=O)[C@H](CC(=O)O)NC(=O)[C@H](CCC(N)=O)NC(=O)[C@H](C)NC(=O)[C@H](CCCNC(=N)N)NC(=O)[C@H](CCCNC(=N)N)NC(=O)[C@H](CO)NC(=O)[C@H](CC(=O)O)NC(=O)[C@H](CC(C)C)NC(=O)[C@H](Cc1ccc(O)cc1)NC(=O)[C@H](CCCCN)NC(=O)[C@H](CO)NC(=O)[C@H](Cc1ccc(O)cc1)NC(=O)[C@H](CC(=O)O)NC(=O)[C@H](CO)NC(=O)[C@@H](NC(=O)[C@H](Cc1ccccc1)NC(=O)[C@@H](NC(=O)CNC(=O)[C@H](CCC(N)=O)NC(=O)[C@H](CO)NC(=O)[C@@H](N)Cc1c[nH]cn1)[C@@H](C)O)[C@@H](C)O)C(C)C)C(C)C)C(N)=O
B3: g747 (peptide)
peptide: HSQGTFTSDYSKYLDSRRAQDFVQWLEAGGK([γGlu-Palmitoyl])-NH2
modifications: N-terminus assumed
SMILES: CCCCCCCCCCCCCCCC(=O)N[C@@H](CCC(=O)NCCCC[C@H](NC(=O)CNC(=O)CNC(=O)[C@H](C)NC(=O)[C@H](CCC(=O)O)NC(=O)[C@H](CC(C)C)NC(=O)[C@H](Cc1c[nH]c2ccccc12)NC(=O)[C@H](CCC(N)=O)NC(=O)[C@@H](NC(=O)[C@H](Cc1ccccc1)NC(=O)[C@H](CC(=O)O)NC(=O)[C@H](CCC(N)=O)NC(=O)[C@H](C)NC(=O)[C@H](CCCNC(=N)N)NC(=O)[C@H](CCCNC(=N)N)NC(=O)[C@H](CO)NC(=O)[C@H](CC(=O)O)NC(=O)[C@H](CC(C)C)NC(=O)[C@H](Cc1ccc(O)cc1)NC(=O)[C@H](CCCCN)NC(=O)[C@H](CO)NC(=O)[C@H](Cc1ccc(O)cc1)NC(=O)[C@H](CC(=O)O)NC(=O)[C@H](CO)NC(=O)[C@@H](NC(=O)[C@H](Cc1ccccc1)NC(=O)[C@@H](NC(=O)CNC(=O)[C@H](CCC(N)=O)NC(=O)[C@H](CO)NC(=O)[C@@H](N)Cc1c[nH]cn1)[C@@H](C)O)[C@@H](C)O)C(C)C)C(N)=O)C(=O)O
B4: g728 (peptide)
peptide: HSQGTFTSDYSK([γGlu-Palmitoyl])YLDSRRAQDFVQWLVAGG-NH2
modifications: N-terminus assumed
SMILES: CCCCCCCCCCCCCCCC(=O)N[C@@H](CCC(=O)NCCCC[C@H](NC(=O)[C@H](CO)NC(=O)[C@H](Cc1ccc(O)cc1)NC(=O)[C@H](CC(=O)O)NC(=O)[C@H](CO)NC(=O)[C@@H](NC(=O)[C@H](Cc1ccccc1)NC(=O)[C@@H](NC(=O)CNC(=O)[C@H](CCC(N)=O)NC(=O)[C@H](CO)NC(=O)[C@@H](N)Cc1c[nH]cn1)[C@@H](C)O)[C@@H](C)O)C(=O)N[C@@H](Cc1ccc(O)cc1)C(=O)N[C@@H](CC(C)C)C(=O)N[C@@H](CC(=O)O)C(=O)N[C@@H](CO)C(=O)N[C@@H](CCCNC(=N)N)C(=O)N[C@@H](CCCNC(=N)N)C(=O)N[C@@H](C)C(=O)N[C@@H](CCC(N)=O)C(=O)N[C@@H](CC(=O)O)C(=O)N[C@@H](Cc1ccccc1)C(=O)N[C@H](C(=O)N[C@@H](CCC(N)=O)C(=O)N[C@@H](Cc1c[nH]c2ccccc12)C(=O)N[C@@H](CC(C)C)C(=O)N[C@H](C(=O)N[C@@H](C)C(=O)NCC(=O)NCC(N)=O)C(C)C)C(C)C)C(=O)O
B5: g701 (peptide)
peptide: HSQGTFTSDYSK([γGlu-Palmitoyl])YLDSRRAQDFVQWLERGG-NH2
modifications: N-terminus assumed
SMILES: CCCCCCCCCCCCCCCC(=O)N[C@@H](CCC(=O)NCCCC[C@H](NC(=O)[C@H](CO)NC(=O)[C@H](Cc1ccc(O)cc1)NC(=O)[C@H](CC(=O)O)NC(=O)[C@H](CO)NC(=O)[C@@H](NC(=O)[C@H](Cc1ccccc1)NC(=O)[C@@H](NC(=O)CNC(=O)[C@H](CCC(N)=O)NC(=O)[C@H](CO)NC(=O)[C@@H](N)Cc1c[nH]cn1)[C@@H](C)O)[C@@H](C)O)C(=O)N[C@@H](Cc1ccc(O)cc1)C(=O)N[C@@H](CC(C)C)C(=O)N[C@@H](CC(=O)O)C(=O)N[C@@H](CO)C(=O)N[C@@H](CCCNC(=N)N)C(=O)N[C@@H](CCCNC(=N)N)C(=O)N[C@@H](C)C(=O)N[C@@H](CCC(N)=O)C(=O)N[C@@H](CC(=O)O)C(=O)N[C@@H](Cc1ccccc1)C(=O)N[C@H](C(=O)N[C@@H](CCC(N)=O)C(=O)N[C@@H](Cc1c[nH]c2ccccc12)C(=O)N[C@@H](CC(C)C)C(=O)N[C@@H](CCC(=O)O)C(=O)N[C@@H](CCCNC(=N)N)C(=O)NCC(=O)NCC(N)=O)C(C)C)C(=O)O
B6: g318 (peptide)
peptide: HSQGTFTSDYSKYLDSRRAQDFVQWLVAGGSSGGSSK(Palmitoyl)-NH2
modifications: N-terminus assumed
SMILES: CCCCCCCCCCCCCCCC(=O)NCCCC[C@H](NC(=O)[C@H](CO)NC(=O)[C@H](CO)NC(=O)CNC(=O)CNC(=O)[C@H](CO)NC(=O)[C@H](CO)NC(=O)CNC(=O)CNC(=O)[C@H](C)NC(=O)[C@@H](NC(=O)[C@H](CC(C)C)NC(=O)[C@H](Cc1c[nH]c2ccccc12)NC(=O)[C@H](CCC(N)=O)NC(=O)[C@@H](NC(=O)[C@H](Cc1ccccc1)NC(=O)[C@H](CC(=O)O)NC(=O)[C@H](CCC(N)=O)NC(=O)[C@H](C)NC(=O)[C@H](CCCNC(=N)N)NC(=O)[C@H](CCCNC(=N)N)NC(=O)[C@H](CO)NC(=O)[C@H](CC(=O)O)NC(=O)[C@H](CC(C)C)NC(=O)[C@H](Cc1ccc(O)cc1)NC(=O)[C@H](CCCCN)NC(=O)[C@H](CO)NC(=O)[C@H](Cc1ccc(O)cc1)NC(=O)[C@H](CC(=O)O)NC(=O)[C@H](CO)NC(=O)[C@@H](NC(=O)[C@H](Cc1ccccc1)NC(=O)[C@@H](NC(=O)CNC(=O)[C@H](CCC(N)=O)NC(=O)[C@H](CO)NC(=O)[C@@H](N)Cc1c[nH]cn1)[C@@H](C)O)[C@@H](C)O)C(C)C)C(C)C)C(N)=O

Legend:
Test in all cases: cell-based or functional assay
[1] = molecular target: human glucagon receptor (human, UniProt P47871 26-477)
[2] = molecular target: human GLP-1 receptor (human, UniProt P43220 24-463)
[3] = molecular target: T1, human glucose-dependent insulinotropic …

Sequence of human glucagon receptor (P47871 26-477): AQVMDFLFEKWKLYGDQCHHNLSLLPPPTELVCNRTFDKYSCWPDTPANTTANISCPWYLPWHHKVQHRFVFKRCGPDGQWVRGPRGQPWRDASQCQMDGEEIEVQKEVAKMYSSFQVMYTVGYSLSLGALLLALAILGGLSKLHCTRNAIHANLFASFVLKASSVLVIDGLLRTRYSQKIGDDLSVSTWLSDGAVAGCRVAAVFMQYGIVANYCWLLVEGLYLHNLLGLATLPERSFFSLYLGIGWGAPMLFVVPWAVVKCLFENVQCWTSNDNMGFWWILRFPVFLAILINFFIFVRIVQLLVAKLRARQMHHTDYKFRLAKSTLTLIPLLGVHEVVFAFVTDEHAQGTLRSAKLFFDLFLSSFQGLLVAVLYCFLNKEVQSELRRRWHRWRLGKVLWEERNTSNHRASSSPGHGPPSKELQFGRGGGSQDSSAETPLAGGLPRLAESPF

| Binder | cAMP EC50 (assay 1) [1] | cAMP EC50 (assay 1) [2] | cAMP EC50 (assay 1) [3] |
| --- | --- | --- | --- |
| B1 | 1.49 nM | – | – |
| HSQGTFTSDYSKYLDSRRAQDFVQWLVAGGSSGGSSK-NH2 [g317] | – | 2.63 nM | – |
| B2 | 0.00282 nM | 0.0247 nM | 12.6 nM |
| HSQGTFTSDYSKYLDSRRAQDFVQWLVAGGSGSGSG-NH2 [g402] | 0.0596 nM | 0.0857 nM | – |
| HSQGTFTSDYSKYLDSRRAQDFVQWLVAGGGGGGK-NH2 [g325] | 0.0103 nM | 0.0261 nM | – |
| HSQGTFTSDYSKYLDSRRAQDFVQWLVAGGPSSGAPPPSK(Palmitoyl)-NH2 [g320] | 0.0032 nM | 0.00938 nM | 1.01 nM |
| B3 | 0.0942 nM | 3.16 nM | 1040 nM |
| HSQGTFTSDYSKYLDSRRAQDFVQWLEAGG-NH2 [g840] | 0.0053 nM | 0.145 nM | 102 nM |
| B4 | 2.44 nM | – | 395 nM |
| B5 | 3.83 nM | 7.4 nM | – |
| HSQGTFTSDYSKYLDSRRAQDFVQWLVAGGPSSGAPPPSK-NH2 [g319] | 0.0104 nM | 0.0361 nM | – |
| HSQGTFTSDYSKYLDSRRAQDFVQWLVAGGGGGG-NH2 [g315] | 0.00504 nM | 0.0273 nM | 19.7 nM |
| HSQGTFTSDYSKYLDSRRAQDFVQWLVAGGSSGGSS-NH2 [g316] | 0.0106 nM | 0.0314 nM | 3.65 nM |
| B6 | 9.04 nM | 1.14 nM | – |
